Measured values reported in US20130280279A1, “PHARMACEUTICAL COMPOSITION OF A COMPLEX OF AN ANTI-DIG ANTIBODY AND DIGOXIGENIN THAT IS CONJUGATED TO A PEPTIDE” (HOFFMANN-LA ROCHE INC., priority 2011, published 2013).
One block for each molecule: values may come before it.

Columns and labels:
[1] = molecular target: digoxigenated nucleic acids (siRNA-Dig); assay: SPR (Biacore) binding to digoxigenated nucleic acids; settings: 25° C., read-out: Kd towards digoxigenated nucleic acids (siRNA-Dig)
Method: For that, binding properties of the recombinant <Dig> derivatives were analyzed by surface plasmon resonance (SPR) technology using a Biacore T100 or Biacore 3000 instrument (GE Healthcare Bio-Sciences AB, Uppsala). This system is well established for the study of molecule interactions. It allows a continuous real-time monitoring of ligand/analyte bindings and thus the determination of association rate constants (ka), dissociation rate constants (kd), and equilibrium constants (KD) in various assay settings. SPR-technology is based on the measurement of the refractive index close to the surface of a gold coated biosensor chip. Changes in the refractive index indicate mass changes on the surface caused by the interaction of immobilized ligand with analyte injected in solution. […]
Anti-mouse IgG antibody was immobilized on the surface of a CM5 biosensor chip in the same fashion as described above. […] The samples to be analyzed were diluted in HBS-P (10 mM HEPES, pH 7.4, 150 mM NaCl, 0.005% Surfactant P20) and injected at a flow rate of 5 μl/min. […] Signals were detected at a rate of one signal per second. […]
Anti-mouse and anti-human IgG antibodies were immobilized on the surface of a CM5 biosensor chip in the same fashion as described above. The samples to be analyzed were diluted in HBS-P and injected at a flow rate of 5 μl/min. […]

DIG-myoglobin = assay: SPR binding to mono-digoxigenated protein DIG-myoglobin
Method: Further SPR studies were performed in which the binding affinity of the humanized <DIG>-IgG, IGF1R-DIG and the murine <DIG>M-19-11 was compared in binding to a mono-digoxigenated protein DIG-myoglobin.

- Kd [1]: 12 nM
B1: humanized DIG-IgG: humanized IgG with the binding specificity of murine <Dig> 19-11 (antibody, V domains shown)
VH: QVQLVESGGGLVKPGGSLRLSCAASGFTFSDYAMSWIRQAPGKGLEWVSSINIGATYIYYADSVKGRFTISRDNAKNSLYLQMNSLRAEDTAVYYCARPGSPYEYDKAYYSMAYWGQGTTVTVSS
VL: DIQMTQSPSSLSASVGDRVTITCRASQDIKNYLNWYQQKPGKAPKLLIYYSSTLLSGVPSRFSGSGSGTDFTLTISSLQPEDFATYYCQQSITLPPTFGGGTKVEIKR

- affinity to DIG-Myo compared with the humanized derivatives (DIG-myoglobin): clearly better
- Kd [1]: 0.269 nM
B2: murine DIG-IgG 19-11: monoclonal murine <Dig> IgG1 kappa antibody from hybridoma clone 19-11 (antibody, V domains shown)
VH: EVQLVESGGGLVKPGGSLKLSCAVSGFTFSDYAMSWIRQTPENRLEWVASINIGATYAYYPDSVKGRFTISRDNAKNTLFLQMSSLGSEDTAMYYCARPGSPYEYDKAYYSMAYWGPGTSVTVSS
VL: DVQMTQSTSSLSASLGDRVTISCRASQDIKNYLNWYQQKPGGTVKLLIYYSSTLLSGVPSRFSGRGSGTDFSLTITNLEREDIATYFCQQSITLPPTFGGGTKLEIK
